Measurements as given in JP2021530247A.

Tests used:
Bcl-2を発現しているライセート = Bcl-2を発現しているライセート (UniProt P10415); experiment: sandwich ELISA with the commercial reagents (taken as Bcl-2/100 capture, 4D7-biotin detector), lysate
[1] = molecular target: 10ng/mLのタンパク質サンプル (rBcl-2; R&D Systems or in-house, not stated) (UniProt P10415); experiment: sandwich ELISA with the commercial reagents (taken as Bcl-2/100 capture, 4D7-biotin detector), 10 ng/mL protein

OD (Bcl-2を発現しているライセート): 0.24 OD
OD [1]: 0.67 OD
Substance: mAb Bcl-2/100 (antibody)
